Experimental data published in patent US12312641B2, “Sensitivity marker for antibody-drug conjugate” (priority 2018, dated 2025).

Experiments:
[1] = system: patient-derived xenograft (PDX) model; assay: Anti-tumor effect (TGI) in patient-derived xenograft models, 10 to 15 days after administration; type: in vivo, nu/nu mice; details: for TGI (%): 10 mg/kg tail vein; for Proportion of PDX models showing TGI of 75% or more: TGI at 10 to 15 days
Experimental: Mice: Female nu/nu mice (Envigo) aged 5-8 weeks were acclimatized under SPF conditions for 3 days or more prior to experimental use. Mice were fed with sterile solid feed (Teklad2919, Envigo) and given reverse osmosis membrane-treated water (containing 2 ppm chlorine).
Measurements and Calculation formula: long and short diameters of tumors were measured twice a week with an electronic digital caliper (CD-6PMX, Mitutoyo Corp.) and tumor volume (mm^3) was calculated using the following calculation formula: Tumor volume (mm^3)=0.52×Long diameter (mm)×[Short diameter (mm)]^2
Tumor fragments from each cancer patient were subcutaneously implanted into mice and passaged. The obtained tumors were used to subcutaneously implant tumor fragments, which were cut to approximately 5×5×5 mm^3, into the left abdomen of female nu/nu mice, thereby each patient-derived xenograft (PDX) model was created. Mice were randomly grouped when the mean transplanted tumor volume reached 150 to 300 mm^3 (Day 0). On the same day as grouping, the antibody-drug conjugate (1) was administered into the tail vein at a dose of 10 mg/kg. A formulation buffer was similarly administered at a volume of 10 mL/kg as a negative control.
Data on the amount of gene expression in each PDX model used in Example 4 were obtained by the next-generation RNA sequencing method using RNA extracted from formalin-fixed paraffin-embedded specimens of each tumor. After the obtained data were normalized to a FPKM value, 1 was added to FPKM, and the sum was transformed to a logarithmic (log2) to obtain a log2[FPKM+1] value (Table 6). The log2[FPKM+1] value was used to analyze the relationship between the anti-tumor activity of antibody-drug conjugate (1) in each PDX model (Table 5) and the amount of expression of the hTROP2 gene and the SLFN11 gene.

[2] = system: relapsed and advanced non-small cell lung cancer; assay: Phase 1 study, dose escalation part, maximum tumor change rate; type: in vivo, human
Experimental: In a dose escalation part of a Phase 1 study for patients with relapsed and advanced non-small cell lung cancer, the antibody-drug conjugate (1) was administered intravenously once every three weeks until unacceptable toxicity or worsening of the pathological condition was observed. The dose-limiting toxicity was determined in Cycle 1 (Days 1-21). Tumor sampling was performed after entry into the clinical study following the first dose. Note that a minus value in the maximum tumor change rate means that the tumor has been reduced by administration of antibody-drug conjugate (1).
Gene expression data of each patient were obtained by EdgeSeq after preparing a section from a formalin-fixed paraffin-embedded specimen of tumor tissue of each patient prior to antibody-drug conjugate (1) administration, and cutting out a tumor site by laser microdissection. The obtained count data were normalized by the Median normalization method, thereby the amount of expression of each gene was obtained. All the above tests were performed at HTG Molecular Diagnostics, Inc.
To the Median Normalized Count (MNC) value, after being obtained and normalized at HTG Molecular Diagnostics, Inc., 1 was added, and the sum was transformed to a logarithmic (log2) to obtain a log2[MNC+1] value (Table 15). The log2[MNC+1] value was used to analyze the relationship between the anti-tumor activity of antibody-drug conjugate (1) in each patient (Table 14) and the amount of expression of the hTROP2 gene and the SLFN11 gene. When all of the evaluated patients were grouped into groups having at least a certain amount of expression of the hTROP2 and SLFN11 genes (Table 16), it was shown that the proportion of patients showing at least a certain drug efficacy (maximum tumor change rate of 0% or less) is higher as the hTROP2 gene expression and the SLFN11 gene expression increases (Table 17). In the absence of grouping by SLFN11 gene expression, the proportion of patients showing the maximum tumor change rate of 0% or less was not more than 75 to 80%. […] For example, when the log2[MNC+1] value of the hTROP2 gene exceeds 12 and the log2[MNC+1] value of the SLFN11 gene exceeds 11.5, the proportion of patients in which the maximum tumor change rate is 0% or less is about 80% to 100%.

B1: antibody-drug conjugate (1): humanized anti-hTROP2 antibody (SEQ ID NO: 1 residues 20-470, SEQ ID NO: 2 residues 21-234) conjugated to the exatecan-derivative drug-linker via a thioether bond (conjugate, chains of the INN, looked up)
VH: QVQLVQSGAEVKKPGASVKVSCKASGYTFTTAGMQWVRQAPGQGLEWMGWINTHSGVPKYAEDFKGRVTISADTSTSTAYLQLSSLKSEDTAVYYCARSGFGSSYWYFDVWGQGTLVTVSS
VL: DIQMTQSPSSLSASVGDRVTITCKASQDVSTAVAWYQQKPGKAPKLLIYSASYRYTGVPSRFSGSGSGTDFTLTISSLQPEDFAVYYCQQHYITPLTFGQGTKLEIK
modifications: exatecan-derivative drug-linker
- TGI (%) ([1]; PDX model #1, Breast, Day 14): 95.2%
- TGI (%) ([1]; PDX model #2, Lung, Day 14): 68.3%
- TGI (%) ([1]; PDX model #3, Cholangiocarcinoma, Day 14): 22.2%
- TGI (%) ([1]; PDX model #4, Pancreatic, Day 14): 21.8%
- TGI (%) ([1]; PDX model #5, Colorectal, Day 14): 41.7%
- TGI (%) ([1]; PDX model #6, Breast, Day 14): 92.4%
- TGI (%) ([1]; PDX model #7, Breast, Day 15): 87.6%
- TGI (%) ([1]; PDX model #8, Head & neck, Day 14): 57.9%
- TGI (%) ([1]; PDX model #9, Head & neck, Day 14): 94.0%
- TGI (%) ([1]; PDX model #10, Lung, Day 14): 97.3%
- TGI (%) ([1]; PDX model #11, Lung, Day 14): 87.4%
- TGI (%) ([1]; PDX model #12, Breast, Day 15): 90.0%
- TGI (%) ([1]; PDX model #13, Lung, Day 14): 62.3%
- TGI (%) ([1]; PDX model #14, Breast, Day 14): 82.7%
- TGI (%) ([1]; PDX model #15, Cholangiocarcinoma, Day 14): 46.4%
- TGI (%) ([1]; PDX model #16, Colorectal, Day 14): 26.0%
- TGI (%) ([1]; PDX model #17, Breast, Day 14): 56.5%
- TGI (%) ([1]; PDX model #18, Lung, Day 14): 14.6%
- TGI (%) ([1]; PDX model #19, Lung, Day 14): 28.1%
- TGI (%) ([1]; PDX model #20, Lung, Day 14): 82.0%
- TGI (%) ([1]; PDX model #21, Lung, Day 14): 76.6%
- TGI (%) ([1]; PDX model #22, Lung, Day 14): 87.9%
- TGI (%) ([1]; PDX model #23, Lung, Day 14): 4.7%
- TGI (%) ([1]; PDX model #24, Lung, Day 14): 19.1%
- TGI (%) ([1]; PDX model #25, Pancreatic, Day 14): 37.9%
- TGI (%) ([1]; PDX model #26, Pancreatic, Day 13): 62.3%
- TGI (%) ([1]; PDX model #27, Lung, Day 13): 48.5%
- TGI (%) ([1]; PDX model #28, Breast, Day 14): 92.6%
- TGI (%) ([1]; PDX model #29, Breast, Day 14): 97.4%
- TGI (%) ([1]; PDX model #30, Lung, Day 10): 84.7%
- TGI (%) ([1]; PDX model #31, Colorectal, Day 14): 58.4%
- TGI (%) ([1]; PDX model #32, Lung, Day 13): 64.9%
- TGI (%) ([1]; PDX model #33, Lung, Day 14): 25.0%
- TGI (%) ([1]; PDX model #34, Lung, Day 13): 89.7%
- TGI (%) ([1]; PDX model #35, Lung, Day 14): −0.4%
- Proportion of PDX models showing TGI of 75% or more ([1]; log2[FPKM+1]: hTROP2 >4.0, SLFN11 >1, 21 models): 57%
- Proportion of PDX models showing TGI of 75% or more ([1]; log2[FPKM+1]: hTROP2 >4.0, SLFN11 >2, 15 models): 60%
- Proportion of PDX models showing TGI of 75% or more ([1]; log2[FPKM+1]: hTROP2 >4.0, SLFN11 >3, 9 models): 67%
- Proportion of PDX models showing TGI of 75% or more ([1]; log2[FPKM+1]: hTROP2 >4.0, SLFN11 All models, 32 models): 44%
- Proportion of PDX models showing TGI of 75% or more ([1]; log2[FPKM+1]: hTROP2 >5.0, SLFN11 >1, 18 models): 56%
- Proportion of PDX models showing TGI of 75% or more ([1]; log2[FPKM+1]: hTROP2 >5.0, SLFN11 >2, 13 models): 62%
- Proportion of PDX models showing TGI of 75% or more ([1]; log2[FPKM+1]: hTROP2 >5.0, SLFN11 >3, 7 models): 71%
- Proportion of PDX models showing TGI of 75% or more ([1]; log2[FPKM+1]: hTROP2 >5.0, SLFN11 All models, 29 models): 41%
- Proportion of PDX models showing TGI of 75% or more ([1]; log2[FPKM+1]: hTROP2 >6.0, SLFN11 >1, 17 models): 59%
- Proportion of PDX models showing TGI of 75% or more ([1]; log2[FPKM+1]: hTROP2 >6.0, SLFN11 >2, 12 models): 67%
- Proportion of PDX models showing TGI of 75% or more ([1]; log2[FPKM+1]: hTROP2 >6.0, SLFN11 >3, 6 models): 83%
- Proportion of PDX models showing TGI of 75% or more ([1]; log2[FPKM+1]: hTROP2 >6.0, SLFN11 All models, 25 models): 48%
- Proportion of PDX models showing TGI of 75% or more ([1]; log2[FPKM+1]: hTROP2 >7.0, SLFN11 >1, 11 models): 64%
- Proportion of PDX models showing TGI of 75% or more ([1]; log2[FPKM+1]: hTROP2 >7.0, SLFN11 >2, 7 models): 86%
- Proportion of PDX models showing TGI of 75% or more ([1]; log2[FPKM+1]: hTROP2 >7.0, SLFN11 >3, 4 models): 100%
- Proportion of PDX models showing TGI of 75% or more ([1]; log2[FPKM+1]: hTROP2 >7.0, SLFN11 All models, 16 models): 50%
- Proportion of PDX models showing TGI of 75% or more ([1]; log2[FPKM+1]: hTROP2 All models, SLFN11 >1, 24 models): 54%
- Proportion of PDX models showing TGI of 75% or more ([1]; log2[FPKM+1]: hTROP2 All models, SLFN11 >2, 18 models): 56%
- Proportion of PDX models showing TGI of 75% or more ([1]; log2[FPKM+1]: hTROP2 All models, SLFN11 >3, 12 models): 58%
- Proportion of PDX models showing TGI of 75% or more ([1]; log2[FPKM+1]: hTROP2 All models, SLFN11 All models, 35 models): 43%
- Proportion of animal models showing TGI of 75% or more ([1]; log2[FPKM+1]: hTROP2 exceeds 7.0 and SLFN11 exceeds 3.0): 100%
- Maximum tumor change rate (%) ([2]; Patient #1, 2 mg/kg intravenously once every three weeks): −7.14%
- Maximum tumor change rate (%) ([2]; Patient #2, 2 mg/kg intravenously once every three weeks): −68.52%
- Maximum tumor change rate (%) ([2]; Patient #3, 2 mg/kg intravenously once every three weeks): −4.76%
- Maximum tumor change rate (%) ([2]; Patient #4, 2 mg/kg intravenously once every three weeks): −11.70%
- Maximum tumor change rate (%) ([2]; Patient #5, 2 mg/kg intravenously once every three weeks): 52.00%
- Maximum tumor change rate (%) ([2]; Patient #6, 2 mg/kg intravenously once every three weeks): 3.15%
- Maximum tumor change rate (%) ([2]; Patient #7, 4 mg/kg intravenously once every three weeks): 33.33%
- Maximum tumor change rate (%) ([2]; Patient #8, 4 mg/kg intravenously once every three weeks): −53.13%
- Maximum tumor change rate (%) ([2]; Patient #9, 6 mg/kg intravenously once every three weeks): −52.27%
- Maximum tumor change rate (%) ([2]; Patient #10, 8 mg/kg intravenously once every three weeks): −3.47%
- Maximum tumor change rate (%) ([2]; Patient #11, 8 mg/kg intravenously once every three weeks): −35.46%
- Maximum tumor change rate (%) ([2]; Patient #12, 8 mg/kg intravenously once every three weeks): −63.64%
- Proportion of patients showing a maximum tumor change rate of 0% or less ([2]; log2[MNC+1]: hTROP2 >12, SLFN11 >11.5, 8 patients): 88%
- Proportion of patients showing a maximum tumor change rate of 0% or less ([2]; log2[MNC+1]: hTROP2 >12, SLFN11 >12.5, 4 patients): 100%
- Proportion of patients showing a maximum tumor change rate of 0% or less ([2]; log2[MNC+1]: hTROP2 >12, SLFN11 All, 9 patients): 78%
- Proportion of patients showing a maximum tumor change rate of 0% or less ([2]; log2[MNC+1]: hTROP2 >14, SLFN11 >11.5, 5 patients): 80%
- Proportion of patients showing a maximum tumor change rate of 0% or less ([2]; log2[MNC+1]: hTROP2 >14, SLFN11 >12.5, 2 patients): 100%
- Proportion of patients showing a maximum tumor change rate of 0% or less ([2]; log2[MNC+1]: hTROP2 >14, SLFN11 All, 5 patients): 80%
- Proportion of patients showing a maximum tumor change rate of 0% or less ([2]; log2[MNC+1]: hTROP2 All, SLFN11 >11.5, 11 patients): 82%
- Proportion of patients showing a maximum tumor change rate of 0% or less ([2]; log2[MNC+1]: hTROP2 All, SLFN11 >12.5, 5 patients): 100%
- Proportion of patients showing a maximum tumor change rate of 0% or less ([2]; log2[MNC+1]: hTROP2 All, SLFN11 All, 12 patients): 75%
